Results as given in US20230083243A1 (VEGA THERAPEUTICS, published 2023).

Experiments:
human Protein S [1] = target: T1, human Protein S (human, UniProt P07225 42-676); experiment: cell-based or functional assay
T1 sequence: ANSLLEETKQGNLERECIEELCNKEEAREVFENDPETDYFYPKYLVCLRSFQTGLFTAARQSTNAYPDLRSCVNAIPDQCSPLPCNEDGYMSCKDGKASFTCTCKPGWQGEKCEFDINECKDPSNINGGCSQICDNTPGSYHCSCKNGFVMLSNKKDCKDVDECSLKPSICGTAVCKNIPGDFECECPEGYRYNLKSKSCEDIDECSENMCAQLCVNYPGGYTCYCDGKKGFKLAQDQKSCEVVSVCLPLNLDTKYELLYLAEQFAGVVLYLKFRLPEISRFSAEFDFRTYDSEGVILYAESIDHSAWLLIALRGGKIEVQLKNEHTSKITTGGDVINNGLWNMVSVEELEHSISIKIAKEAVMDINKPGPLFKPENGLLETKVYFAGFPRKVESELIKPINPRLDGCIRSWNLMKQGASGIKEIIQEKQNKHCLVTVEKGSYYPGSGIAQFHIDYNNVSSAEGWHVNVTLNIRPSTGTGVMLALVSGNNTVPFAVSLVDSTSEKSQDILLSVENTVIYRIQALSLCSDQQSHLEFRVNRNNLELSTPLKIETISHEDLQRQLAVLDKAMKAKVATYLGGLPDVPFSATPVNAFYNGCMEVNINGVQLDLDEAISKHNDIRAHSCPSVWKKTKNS

human Protein S [2] = target: T1, human Protein S; experiment: ELISA; plate coated with human Protein S; 1 µg/ml antibody; 1 mM EDTA
Protocol: (§1) Calcium dependence of binding was determined using an ELISA based method. Briefly, high binding ELISA plates were coated with human Protein S. Then, buffer containing 1 μg/ml of antibody was applied to the well with either buffer containing 1 mM EDTA or 1 mM calcium chloride.

[3] = target: T2, recombinant heavy chain Protein S (human, UniProt P07225 42-296); experiment: ELISA; plate coated with recombinant Protein S heavy chain; 1 mM CaCl2
T2 construct: Fragment of Protein S spanning amino acids 42-296, expressed and purified from HEK293 cells; also called Protein S heavy chain; heavy chain of Protein S
T2 sequence: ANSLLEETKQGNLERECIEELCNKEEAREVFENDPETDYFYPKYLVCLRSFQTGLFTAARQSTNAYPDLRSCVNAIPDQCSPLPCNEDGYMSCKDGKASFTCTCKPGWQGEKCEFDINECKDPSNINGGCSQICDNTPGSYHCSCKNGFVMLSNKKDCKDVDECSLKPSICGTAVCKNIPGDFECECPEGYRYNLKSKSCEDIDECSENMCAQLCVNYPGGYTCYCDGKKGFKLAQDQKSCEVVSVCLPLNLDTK
Protocol: Binding to the heavy chain of Protein S was determined using an ELISA based method. Briefly, high binding ELISA plates were coated with recombinant heavy chain Protein S expressed and purified from HEK293 cells. The “heavy chain” of Protein S represents a fragment of Protein S spanning amino acids 42-296. The coated plate was blocked with 1% casein solution. Then, buffer containing […] of antibody was applied to the well with buffer containing 1 mM calcium chloride.

human Protein S [4] = target: T1, human Protein S; experiment: ELISA; plate coated with human Protein S; 1 µg/ml antibody; 1 mM calcium chloride
Protocol: as §1

human Protein S [5] = target: T1, human Protein S; experiment: BLI Octet; antibody on anti-human Fc probe; Protein S 7.81-500 nM; 4 mM CaCl2
Protocol: (§2) Binding characteristics of the Protein S antibodies were also further characterized using Octet. Using the Octet System (Sartorius), the binding of each antibody to both human and cynomolgus monkey (“cyno” in Table 10) Protein S was determined. The human Fc antibodies were immobilized onto anti-human Fc capture probes by placing the probes into 10 μg/ml antibody solution in 10 mg/ml bovine serum albumin, 20 mM Tris pH 7.0, 150 mM NaCl, and 4 mM calcium chloride. […] Next, the probes were placed into buffer and the dissociation rates were measured.

[6] = target: T3, cynomolgus monkey Protein S (cynomolgus monkey); experiment: as above
T3 construct: also called cyno Protein S
Protocol: as §2

human Protein S [7] = target: T1, human Protein S; experiment: SPR Biacore X100; antibody captured by anti-human IgG (Fc); Protein S 2-128 nM; 5 mM CaCl2; 1:1 fit
Protocol: Binding characteristics of the Protein S antibodies were also determined. Binding interaction analysis was obtained by Surface Plasmon Resonance in a Biacore X100 instrument. The human anti-IgG (Fc) antibody was immobilized to the carboxymethylated dextran membrane on the sensor chip surface (CM5) via the free amine method for a contact time of 420 seconds. Human anti-IgG antibody at 25 μg/mL in 0.15 M NaCl was immobilized to 9,785 RU in 10 mM sodium acetate pH 5.0.
Dilution and running buffer were as follows: Hbs−EP+5 mM CaCl₂. Regeneration was obtained by 3 M MgCl₂. Binding constants (ka, kd, and KD) were determined using the Biacore X100 evaluation software, assuming a 1:1 interaction of Protein S and the tested monoclonal antibody under investigation.

B1: Antibody 20 (antibody, V domains shown)
VH: QVQLQESGPGLVKPSETLSLTCAVSGYSISSGYYWGWIRQPPGKGLDWIGSIYYSGSTYYNPSLKSRVTISVDTSKNQISLKLSSVTAADTAVYYCATTYSDIVTGYYNDAFDIWGQGTMVTVSS
VL: EIVMTQSPATLSVSPGERATLSCRASQRINSNLAWYQQKPGQAPRLLIYGASTRATGIPARFSGSGSGTEFTLTISSLQSEDFAAYYCQQYDNWPLTFGGGTKVEIK
notes: Human variable region with rat Fc
Human Protein S [1]
  IC50 APC: 12.8 nM
Human Protein S [2]
  Binding to Protein S in EDTA (OD): 0.26 OD
[3]
  Binding to heavy chain (OD): 1.54 OD
Human Protein S [4]
  Binding to Protein S in CaCl2 (OD): 1.93 OD

B2: Antibody 18 (antibody, V domains shown)
VH: QVQLQESGPGLVKPSETLSLTCTVSGGSISNYYWNWIRQPPGKGLEWIGYIYYIGITDYNPSLKSRVTISVDTSKNQFSLKVTSVTAADTAVYYCAALSGDHAFDIWGQGTLVTVSS
VL: not shown
notes: as for B1
Human Protein S [1]
  IC50 APC: 12.8 nM
Human Protein S [2]
  Binding to Protein S in EDTA (OD): 0.1 OD
[3]
  Binding to heavy chain (OD): 0.6 OD
Human Protein S [4]
  Binding to Protein S in CaCl2 (OD): 1.96 OD

B3: Antibody 13 (antibody, V domains shown)
VH: QVQLVQSGAEVKKPGSSVKVSCKVSGGTFSSYSISWVRQAPGQGLEWMGGIIPIFGTTNYAQKFQGRVTITADESTSTAYMDLSSLKSEDTAMYYCEGGRVGADFDYWGQGTLVTVSS
VL: SSDLTQGPAVSVALGQTVRITCQGDSLRNYYASWYQQKPGQAPVPVIYGKNDRPSGIPDRFSGSISGNTASLTITGAQAEDEAHYYCNSRDSSGNHVVFGGGTKLTVL
notes: as for B1
Human Protein S [1]
  IC50 APC: 5.3 nM
  IC50 TFPI: 51.1 nM
Human Protein S [2]
  Binding to Protein S in EDTA (OD): 0.48 OD
[3]
  Binding to heavy chain (OD): 1.63 OD
Human Protein S [4]
  Binding to Protein S in CaCl2 (OD): 1.77 OD

B4: Antibody 16 (antibody, V domains shown)
VH: QVQLVESGGGVVQPGRSLRLSCAASGFTFSTYGFHWVRQPPGKGLEWVAVIYYDGINKYYADSVKGRFTISRDNSKNTLFLQMNSLRAEDTAVYYCAESDLDYWGQGTLVTVSS
VL: EIVLTQSPATLSLSPGERATLSCRASQSVSIYLAWYQQKPGQAPRLLIYDASNRATGIPARFSGSGSGTDFTLTISSLEPEDFAVYYCQQRSNWPLTFGPGTKVDIK
notes: as for B1
Human Protein S [1]
  IC50 APC: 14 nM
  IC50 TFPI: 46.3 nM
Human Protein S [2]
  Binding to Protein S in EDTA (OD): 0.17 OD
[3]
  Binding to heavy chain (OD): 1.67 OD
Human Protein S [4]
  Binding to Protein S in CaCl2 (OD): 1.95 OD

B5: Antibody 15 (antibody, V domains shown)
VH: EVQLVESGGGLVQPGRSLRLSCAASGFTFDDYAMHWVRQAPGKGLEWVSGITWNSGNIGYADSVKGRFTISRDNAKNSLYLHMNSLRIEDTAFYYCAKGRAVSDTFDIWGQGTMVTVSS
VL: SYELNQPPSVSVSPGQTASITCSGDKLGDKYASWYQQKPGQSPVVAIYQNSKRPSGIPERFSASNSGNTATLTISGTQALDEADYYCQAWDSSTWVFGGGTKLTVL
notes: as for B1
Human Protein S [1]
  IC50 APC: 13.5 nM
  IC50 TFPI: 77.3 nM
Human Protein S [2]
  Binding to Protein S in EDTA (OD): 0.07 OD
[3]
  Binding to heavy chain (OD): 1.78 OD
Human Protein S [4]
  Binding to Protein S in CaCl2 (OD): 1.86 OD

B6: Antibody 3 (antibody, V domains shown)
VH: B5 VH
VL: B5 VL
notes: Same variable regions as Antibody 15
Human Protein S [5]
  Kd: 0.0542 nM
  koff: 8.86e-06 s⁻¹
  kon: 164000 M⁻¹ s⁻¹
[6]
  Kd: < 0.001 nM
  koff: < 1e-07 s⁻¹
  kon: 127000 M⁻¹ s⁻¹
Human Protein S [7]
  Kd: 2.24 nM
  koff: 0.000569 s⁻¹
  kon: 253000 M⁻¹ s⁻¹

B7: Antibody 44 (antibody, V domains shown)
VH: QVQLVQSGAEVKKPGASVKVSCKASGYTFTSYYIHWVRQAPGQGLEWMGVTSPSGRSTSFAQKFQGRVTMTRDTSTSAVYMDLDSLRSEDTAVYYCARGGVTIHLERRGYFDYWGQGTLVIVSS
VL: not shown
notes: as for B1
Human Protein S [1]
  IC50 APC: 492 nM
Human Protein S [2]
  Binding to Protein S in EDTA (OD): 0.89 OD
[3]
  Binding to heavy chain (OD): 0.48 OD
Human Protein S [4]
  Binding to Protein S in CaCl2 (OD): 1.17 OD

B8: Antibody 19 (antibody, V domains shown)
VH: QLQLQESGPGLVKPSETLSLTCTVSGGSISSSSYYWGWIRQPPGKGLEWIGNIYYSGNTYYNPSLKSRVTISVDTSKNQFSLKLSSMTAADTAVYYCARCSGYGYSSGRSYFDYWGQETLVTVSS
VL: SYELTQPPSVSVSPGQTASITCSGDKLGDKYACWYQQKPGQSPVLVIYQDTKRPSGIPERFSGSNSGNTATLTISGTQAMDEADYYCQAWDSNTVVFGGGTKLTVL
Human Protein S [1]
  IC50 APC: 81.2 nM
  IC50 TFPI: 105 nM
Human Protein S [2]
  Binding to Protein S in EDTA (OD): 0.06 OD
[3]
  Binding to heavy chain (OD): 0.61 OD
Human Protein S [4]
  Binding to Protein S in CaCl2 (OD): 1.68 OD

B9: Antibody 24 (antibody, V domains shown)
VH: QVQLQESGPGLVKPSETLSLTCGVSGGSISSTNWWSWVRQPPGKGLEWIGEIYQTGSTDYDPSLKSRVTISIDKSKNQFSLKLYSVTAADTAVYYCARRFGELDYWGQGTLVTVSS
VL: EIVMTQSPATLSVSPGERATLSCRASQSVTSNLAWYQQKPGQAPRLLIYDASTRATGIPARFSGSGSGTEFTLTISSLQSEDFAIYYCQQYNNWPTFGQGTRLEIK
notes: as for B1
Human Protein S [1]
  IC50 APC: 17.9 nM
  IC50 TFPI: 73.6 nM
Human Protein S [2]
  Binding to Protein S in EDTA (OD): 0.06 OD
[3]
  Binding to heavy chain (OD): 0.71 OD
Human Protein S [4]
  Binding to Protein S in CaCl2 (OD): 1.72 OD

B10: Antibody 14 (antibody, V domains shown)
VH: QVQLQESGPGLVKPSQTLSLTCTVSGGSITSDGYHWSWIRQYPGKGLDWIGYIYYTGNTYYNPSLKSRVTISVGTSQNQFSLKLISVTAADTAVYYCARRLSTGPYFDYWGQGTLVTVSS
VL: QSALTQPASVSGSPGQSITISCTGTSSDVGGYEFVSWYQHHPGKAPKLMIYDVSSRPSGVSNRFSGSKSGNTASLTISGLQAEDEADYYCSSYTRSSTVVFGGGARLTVL
notes: as for B1
Human Protein S [1]
  IC50 APC: 8.76 nM
  IC50 TFPI: 73.3 nM
Human Protein S [2]
  Binding to Protein S in EDTA (OD): 0.75 OD
[3]
  Binding to heavy chain (OD): 2.03 OD
Human Protein S [4]
  Binding to Protein S in CaCl2 (OD): 2.03 OD

B11: Antibody 21 (antibody, V domains shown)
VH: QVQLVQSGAEVKKPGSSVKVSCKASGDTFSNHAINWVRQAPGQGLEWMGGYIPIFGTTNSAQKFRGRVTITADKSTNTAYMALSSLRSEDTAVYYCARGGLAGSHYKNYYYDGMDVWGQGTTVTVSS
VL: not shown
notes: as for B1
Human Protein S [1]
  IC50 APC: 6.23 nM
Human Protein S [2]
  Binding to Protein S in EDTA (OD): 1.4 OD
[3]
  Binding to heavy chain (OD): 1.58 OD
Human Protein S [4]
  Binding to Protein S in CaCl2 (OD): 1.92 OD
